Assay results from article PMC6294806.
“And” between values parts separate entries of the source, which are not always exact repeats. Equal entries are not always repeated.

Legend:
[1] = molecular target: Protein G of the commercial protein G-based microplate (UniProt P19909); assay: ELISA; sandwich ELISA on commercial protein G-based microplates coated with anti-IFN-α antibody (2 μg/ml); AGP3-biotin 1 μg/ml, 1 hour at room temperature in DMEM/BSA; streptavidin-HRP and ABTS; background absorbance
[2] = molecular target: 8pG receptor: eight tandemly repeated protein G C2 domains fused to an HA epitope and the immunoglobulin C2-type extracellular-transmembrane-cytosolic domains of mouse B7-1 (mB7) (not stated (streptococcal cDNA) | mouse); assay: ELISA; 3.3-biotin (1 μg/ml serially diluted in DMEM/BSA) added to paraformaldehyde-fixed 8pG cell-based microplates, room temperature 1 hour; streptavidin-HRP and ABTS, absorbance 405 nm

background OD 405 [1] | fold absorbance over the commercial protein G-based microplate, 0.01 ug/mL 3.3-biotin [2] | fold absorbance over the commercial protein G-based microplate, 0.04 ug/mL 3.3-biotin [2] | fold absorbance over the commercial protein G-based microplate, 0.11 ug/mL 3.3-biotin [2] | fold absorbance over the commercial protein G-based microplate, 1 ug/mL 3.3-biotin [2] | fold absorbance over the traditional polystyrene-based microplate, 0.01 ug/mL 3.3-biotin [2] | fold absorbance over the traditional polystyrene-based microplate, 0.04 ug/mL 3.3-biotin [2] | fold absorbance over the traditional polystyrene-based microplate, 0.11 ug/mL 3.3-biotin [2] | fold absorbance over the traditional polystyrene-based microplate, 1 ug/mL 3.3-biotin [2] | other [2] | Substance
1.29 |  |  |  |  |  |  |  |  |  | Biotin-conjugated monoclonal mouse anti-PEG IgM antibody AGP3
 | 6.8 fold | 6.2 fold | 2.7 fold | 1.2 fold | 23 fold | 12.4 fold | 8.8 fold | 1.5 fold | 1.6 fold and 4.3 fold | Biotin-conjugated monoclonal mouse anti-PEG antibody 3.3 (IgG type)
